Results: US20040092720A1 (US Dept. of Health and Human Services, published 2004)

Biological target: T1, recombinant human IL-6 (human, UniProt P05231 30-212, labeled with radioactive iodine)
T1 construct: Labeled probe in solution, added to wells that carry the synthetic peptides; also called IL-6 ligand; Interleukin-6
Experiment: radioiodinated IL-6 on peptide array; experiment D11-D57
Protocol: (§1) Synthetic peptide arrays were constructed in 96-well microtiter plates in accordance with the method set forth in WO 91/02714 (Saxinger), and used to test the binding of recombinant human IL-6 that had been labeled with radioactive iodine (radiolabeling by standard methods). After incubating the radiolabeled IL-6 ligand in a well with each synthetic peptide, a washing step was performed to remove unbound label, and the relative level of radioactivity remaining in each well of the plate was evaluated to determine the relative affinity of each peptide for IL-6 ligand.

Row | Binder | Counts/minute bound
1 | GGSLAFGTLLCIAIVL [Peptide D16] | 2460 counts/minute
2 | GGSLAFGTLLCIAIV [Peptide D17] | 1340 counts/minute
3 | GGSLAFGTLLCIA [Peptide D19] | 1150 counts/minute
4 | GGSLAFGTLL [Peptide D22] | 1000 counts/minute
5 | GGSLAFGTL [Peptide D23] | 997 counts/minute
6 | GGSLAFGT [Peptide D24] | 981 counts/minute
7 | GGSLAFG (also called GGSLAFG) [Peptide D25] | 952 counts/minute
8 | GGSLAF (also called GGSLAF) [Peptide D26] | 1050 counts/minute
9 | AFGTLLCIAIVLRFKKT [Peptide D31] | 24000 counts/minute
10 | FGTLLCIAIVLRFKKT [Peptide D32] | 21800 counts/minute
11 | TLLCIAIVLRFKKT [Peptide D34] | 12400 counts/minute
12 | LCIAIVLRFKKT [Peptide D36] | 12400 counts/minute
13 | IAIVLRFKKT [Peptide D38] | 6800 counts/minute
14 | AIVLRFKKT [Peptide D39] | 4880 counts/minute
15 | IVLRFKKT [Peptide D40] | 4450 counts/minute
16 | VLRFKKT (also called VLRFKKT) [Peptide D41] | 2550 counts/minute

The remaining lines, values ahead:

Row | Counts/minute bound | Binder
17 | 1180 counts/minute | GGSLAFGTLLCIAI [Peptide D18]
18 | 1200 counts/minute | GGSLAFGTLLCI [Peptide D20]
19 | 1110 counts/minute | GGSLAFGTLLC [Peptide D21]
20 | 26400 counts/minute | GSLAFGTLLCIAIVLRFKKT [Peptide D28]
21 | 24700 counts/minute | SLAFGTLLCIAIVLRFKKT [Peptide D29]
22 | 22700 counts/minute | LAFGTLLCIAIVLRFKKT [Peptide D30]
23 | 15700 counts/minute | GTLLCIAIVLRFKKT [Peptide D33]
24 | 15500 counts/minute | LLCIAIVLRFKKT [Peptide D35]
25 | 8350 counts/minute | CIAIVLRFKKT [Peptide D37]

Biological target: T1, recombinant human IL-6
Experiment: radioiodinated IL-6 on peptide array; experiment D1-D10
Protocol: as §1

Row | Binder | Counts/minute bound
26 | ATSLPVQDSSSVPLPTFLVAG [Peptide D1] | 4000 counts/minute
27 | CIAIVLRFKKTWKLRALKEGK [Peptide D7] | 52500 counts/minute
28 | LRFKKTWKLRALKEGKTSMHP [Peptide D8] | 20400 counts/minute
29 | TWKLRALKEGKTSMHPPYSLG [Peptide D9] | 5530 counts/minute
30 | ALKEGKTSMHPPYSLGQLVPE [Peptide D10] | 4970 counts/minute

Other lines, results leading:

Row | Counts/minute bound | Binder
31 | 4520 counts/minute | VQDSSSVPLPTFLVAGGSLAF [Peptide D2]
32 | 19800 counts/minute | SVPLPTFLVAGGSLAFGTLLC [Peptide D3]
33 | 32000 counts/minute | TFLVAGGSLAFGTLLCIAIVL [Peptide D4]
34 | 159000 counts/minute | GGSLAFGTLLCIAIVLRFKKT (also called D11; D27) [Peptide D5]
35 | 144000 counts/minute | FGTLLCIAIVLRFKKTWKLRA [Peptide D6]

Biological target: T1, recombinant human IL-6
Experiment: radioiodinated IL-6 on peptide array
Target sequence in this assay (P05231 30-212 limits assumed): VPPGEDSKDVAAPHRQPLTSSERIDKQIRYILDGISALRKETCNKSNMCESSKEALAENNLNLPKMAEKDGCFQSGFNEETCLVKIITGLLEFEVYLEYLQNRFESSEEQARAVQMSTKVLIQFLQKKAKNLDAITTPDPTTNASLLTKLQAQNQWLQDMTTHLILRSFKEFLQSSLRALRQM

Row | Binder | Counts/minute bound (counts/minute)
36 | LTCNILTFGQLEQNVYGITIISGL [Peptide E11] | 1820
37 | PRSTPSLTTKAVLL [Peptide B8] | 1850

Continued, values first:

Row | Counts/minute bound (counts/minute) | Binder
38 | 1750 | AAGSHPSRWAGMGRRL [Peptide A6]
39 | 2080 | SDKAPCITDWQQEDGTVHRTYLRG [Peptide E47]
